Reference: the supplement of paper PMC9170038

Test system: MS2 coat protein
Experiment: apparent KD of MS2 coat protein; higher = weaker reporter binding
Settings: Eterna round: R101
Description: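 RNA-MaP: designed FMN/MS2 RNA switches (84 nt design region) are transcribed on-chip within common flanks and titrated with SNAP-549-labelled MS2 coat protein (about 1-3000 nM) in 100 mM Tris pH 7.5, 80 mM KCl, 4 mM MgCl2, without or with 200 uM FMN. Median apparent KD per design; activation ratio = KD,OFF / KD,ON.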

| Sequence | apparent KD of MS2 coat protein (input ligand: FMN 200 uM) | apparent KD of MS2 coat protein (input ligand: none) |
| --- | --- | --- |
| AAUUAAAUCCUAGGAUAUGACUCCGAAACGGAGUCAGAAGGAGGAUCACCCUUUCAAAGCUCAGCGUCGAAAGACGCUGAGCAA [#SharedSequence - ExNG1-17] (puzzle (switch architecture): Exclusion NG 1) | 82.9 nM | 649 nM |
| AGCUAUGACAUGAGGAUCACCCAUGUAUACAUGGGAUUGACGUAGGAUAUGCUGAAGAUUAAAGUGCAGAAGGACGGCUUAGCG [JR #DistanceFar #Hairpin #NP SSNG3 Sub065] (puzzle (switch architecture): Same State NG 3) | 512 nM | 1250 nM |
| UAUAAUCUUUAAGGAUAUCAGUGGCUUUGCCACUGAGAAGGUGAGGAUCACCCACCUACGUGACCCUGGUUUCAGGGUCACGAU [#AddUracilToBrourdLoops 10 - Jieux - Exclusion NG1] (puzzle (switch architecture): Exclusion NG 1) | 11.6 nM | 10 nM |
| GGAGAAACAUGAGGAUCACCCAUGUAGGAUAUCGGGCCCGGGCCCGGCGAAAGCCGGGCCCGGGACGAGAAGGGCGUAAACACC [#LOL] (puzzle (switch architecture): Small Loop Exclusion NG 3) | 8.72 nM | 8.74 nM |
| UCAUUUAUCACAGGAUAUAUUAGUAUACAGUUGUUUGGUUAUUACAUAUUAAUAGAAGGGUGAAACAUGAGGAUCACCCAUGUA [S-loop S-stateNG1 03] (puzzle (switch architecture): Small Loop Same State NG 1) | 113 nM | 367 nM |
| GGUCGUCACAUUAACAUGAGGAUCACCCAUGUCAAAAGACAUGAGGAUAUGCAUCCUAAUUGGAUGCAGAAGGCAUGGACGACC (puzzle (switch architecture): Same State NG 3) | 12.5 nM | 216 nM |
| UCUUAAUUGUAGAAGGGUGACAUGAGGAUCACCCAUGUGCACGCGCGAUUUACGGCGCGCGUGCCACAGGAUAUACAGUUGGGU [Erinquve] (puzzle (switch architecture): Inverted Same State NG 2) | 12.1 nM | 41.1 nM |
| GGCAGCACUUAGAAGGGAGUGCGAUAAUCGCACUCAGGAUAUGAGGAUCACCCAUAUCAAGCUGCCACUGAGGCAAAGCCUCAG [#SharedSequence - IEx NG 4-1] (puzzle (switch architecture): Inverted Exclusion NG 1) | 9.42 nM | 10.6 nM |
| CUGGUUGUCGUAGGAUAUGUAGGAUAUUCCUACAUGAGGAUCACCCAUGUUCGCAUGGAAGAAGGACAGAAGGACGAUGACCAG [salish99_SSNG2_013 #endbits investigation] (puzzle (switch architecture): Same State NG 2) | 9.22 nM | 1320 nM |
| GCAGCUAAUGCAGGAUAUCAGCACGUGUAGUGCUGAGAAGGGCACAUGAGGAUCACCCAUGUGAUCAAUUAAUAUUAAUGCUGC [jl-eng1-3.00 #ENG1/11-B3_NECK] (puzzle (switch architecture): Exclusion NG 1) | 41.6 nM | 13 nM |
| GCAGCUAAUGCAGGAUAUCAGCACGUGUAGUGCUGAGAAGGGCACAUGAGGAUUCUGACUGUGAUCAAUUAAUAUUAAUGCUGC [salish99#hingeEx3_55-58_005] (puzzle (switch architecture): Exclusion NG 1) | 14.8 nM | 29.2 nM |
| UUUAGUUUGUAGAAGGGUGACAUGAGGAUCACCCAUGUGCGUCGCCUGAAAGACCAGGGUACGCCACAGGAUAUACAAAGUAAA [Tiveedbila] (puzzle (switch architecture): Inverted Same State NG 2) | 76.8 nM | 39.6 nM |
| GCCAUCGCAUGAGGAUAUGCUCGGGUUUCCCGAGCAGAAGGCAUGUCAUAAGACAUGAGGAUCACCCAUGUAGUUAAGAUGGCA [#HiddenHairpinInALoop - Mat - Same State NG 1 - JL mod - D3] (puzzle (switch architecture): Same State NG 1) | 12.7 nM | 289 nM |
| UAAAUAAAUCCUAGAGGAUCACCCUAGGAUAUCACCGUCGAGGUGCCAUAAUGGCACCUCGACGGUGAGAAGGAGGAAAAUAAA [#SharedSequence - SLExNG3: 4] (puzzle (switch architecture): Small Loop Exclusion NG 3) | 6.64 nM | 6.46 nM |
| AGAGCUGCUCAGAAGGAGGAUCACCCUUUCGAAAGAAAUACGGAGGCUGAAAAGCCUCCGAGAUUUUAGGAUAUGAGCAGCUCA [#SharedSequence - IExNG2: 8] (puzzle (switch architecture): Inverted Exclusion NG 2) | 89.1 nM | 74.5 nM |
| AUCAGCUCGUGAGGAUAUACGUCACUGCGUCAGCAGUGUGGUAAGAUCACAUGAGGAUCACCCAUGUAGAAGGCACGAGCUGAU [#FlippingAptamerGcClosingBasepair - Ex NG2 #82] (puzzle (switch architecture): Exclusion NG 2) | 539 nM | 23.6 nM |
| CGCUAUUACAUGAGGAUCACCCAUGUAUAUAUGGGAUUUUCGUAGGAUAUGCAGAAGAUUAAAGUGCAGAAGGACGGAAUAGCG [JR #DistanceClose #Static #NP SSNG3 Sub066] (puzzle (switch architecture): Same State NG 3) | 31.9 nM | 46.9 nM |
| CCGACGUUUCAGAAGGCACUCGCAUAAUGCGAGUGAGGAUAUGAGGAUCACCCAUAUCAUCGUCGGAGUCACCGAAACGGUGAC [#SharedSequence - IEx NG 3-2] (puzzle (switch architecture): Inverted Exclusion NG 1) | 12.4 nM | 7.89 nM |
| GAAAUAUAGUCAGGAUAUCAGGACAUGAGGAUCACCCAUGUACUGAAUGGGCUGGUGAAAAGAGAUGAGAAGGGACACACUAGA [EternaBot874] (puzzle (switch architecture): Exclusion NG 2) | 5.79 nM | – |
| UAAUCUCGAGCCGACGGGAGAUUACAUGAGGAUCACCCAUGUGAGGAUAUCCCUGAGAAGACGGCGGAGAAGGCACUGGGUAGG [Diraoran] (puzzle (switch architecture): Exclusion NG 3) | 18.3 nM | 9.79 nM |
| ACACAUGAGGAUCACCCAUGUAGCCGGCGUCUGCGCCAGCCACAGGAUAUACGGCAACACAAGCCGUAGAAGGGUGAUAAACAC [Lalearledi] (puzzle (switch architecture): Same State NG 3) | 33.9 nM | 49.1 nM |
| AAAGAUUUUUAAGGAUAUGACUCCGAAACGGAGUCAGAAGGUGAGGAUCACCCAUCUAGCUCAGGGUCGAAAGACCCUGAGCAA [#SharedSequence - ExNG1-15] (puzzle (switch architecture): Exclusion NG 1) | 78.3 nM | 43.6 nM |
| UAUUAUAUGGAGAAGGACAUGAGGAUCACCCAUGUCGCCGGGCCCGGGAAACCGGGCCCGGCCAUGUAGGAUAUCCAUAUGGUA [#This is a good prank 6] (puzzle (switch architecture): Inverted Exclusion NG 2) | 5.41 nM | 4.78 nM |
| CGCAUAGACAUGAGGAUCACCCAUGUAUAAAUAGGAUUAACGUAGGAUAUGCAGAAGAUUAAAGUGCAGAAGGACGGCUUUGCG [JR #DistanceFar #NP SSNG3 Sub070] (puzzle (switch architecture): Same State NG 3) | 7.52 nM | 11.5 nM |
| AAAGAUUUUUAAGGAUAUCAGUGGCAAAGCCACUGAGAAGGUGAGGAUCACCCACCUACGUGACGCUGGAAACAGCGUCACGAA [#SharedSequence ExNG1 - 25] (puzzle (switch architecture): Exclusion NG 1) | 12.7 nM | 13 nM |
| AAAUAAUCCUCAGGAUAUGACUCCGAAACGGAGUCAGAAGGGAGGAUCACCCUCUUCAGCUCAGCGUCGAAAGACGCUGAGCAA [#SharedSequence ExNG1 - 23] (puzzle (switch architecture): Exclusion NG 1) | 11.9 nM | 863 nM |
| CACCUAAAUCCUAGAGGAUCACCCUAGGAUAUCACCGUCGAGGUGCCAUAAUGGCACCUCGACGGUGAGAAGGAGGAAAAAUAA [#SharedSequence - SLExNG3: 10] (puzzle (switch architecture): Small Loop Exclusion NG 3) | 5.85 nM | 4.95 nM |
| AAUAAAAUUCUAGGAUAUGACUCCGAAACGGAGUCAGAAGGAGGAUCACCCUUUCAAAGCUCAGCGUCGAAAGACGCUGAGCAA [#SharedSequence - ExNG1-19] (puzzle (switch architecture): Exclusion NG 1) | 1160 nM | 155 nM |
| CACCUAAAUCCUAGAGGAUCACCCUAGGAUAUCACCGUCGAGGUGCCAUAAUGGCACCUCGACGGUGAGAAGGAGGGUGAAAUA [#SharedSequence - SLExNG3: 8] (puzzle (switch architecture): Small Loop Exclusion NG 3) | 6.49 nM | 5.08 nM |
| GGGUACAUCGGAGGAUAUCAUGUAAAUACAUGAGGAUCACCCAUGUCGAUGGAGACAUGGGAGAUUGAGAAGGCCGAUGUACCG (puzzle (switch architecture): Same State NG 2) | 31.7 nM | 22.5 nM |
